For 94 variants, protein stability index results are on record in the supplement of paper PMC10567573.

First the molecules themselves.
B1: RAB11A (parent)
chain: AVPTDEARAFAEKNGLSFIETSAL
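Also: lentivirally expressed fusions sorted by FACS into six bins by GFP to DsRed ratio, PSI derived from sequencing read proportions per bin multiplied by bin number.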

Variants of B1 are the subject of this data set. As to the kind of experiment: protein stability index of a GFP-peptide fusion (GPS, HEK-293T) (PSI 1-6); higher = more stable. The conditions noted are these: c terminus: a fixed tail appended.
For AVPTDEARAFAEKNGLSYIETSAL [F18Y], the protein stability index was 2.62. Take AVPTDEARAFAEKNGLSFIESSAL [T21S]: the protein stability index turned out to be 3.11. As for AVPTDEARAFAEKNGLSFIEYSAL [T21Y], the protein stability index turned out to be 1.5.

For the variant AVPTDEARAFAEKNGLSFIEASAL [T21A], the protein stability index came to 2.49.

In the case of AVPTDEARAFAEKNGLSFIEWSAL [T21W], the protein stability index was 2.39. As to AVPTDEARAFAEKNGLSFIEMSAL [T21M], the protein stability index was determined as 2.64. As to AVPTDEARAFAEKNGLSFIEPSAL [T21P], the protein stability index is 2.15. Turning to AVPTDEARAFAEKNGLSFIEDSAL [T21D], the protein stability index worked out at 4.45.

Take AVPTDEARAFAEKNGLSFIEESAL [T21E]: the protein stability index turned out to be 4.34. Regarding AVPTDEARAFAEKNGLSFIEFSAL [T21F], the protein stability index worked out at 2.37.

Regarding AVPTDEARAFAEKNGLSFIECSAL [T21C], the protein stability index is 2.87. Regarding AVPTDEARAFAEKNGLSFIEHSAL [T21H], the protein stability index is 2.67. With AVPTDEARAFAEKNGLSFIEISAL [T21I], the protein stability index is 1.8. As for AVPTDEARAFAEKNGLSFIEQSAL [T21Q], the protein stability index amounted to 3.75. For AVPTDEARAFAEKNGLSFIERSAL [T21R] the value was 2.5; for AVPTDEARAFAEKNGLSFIEKSAL [T21K], 3.37; for AVPTDEARAFAEKNGLSFIEGSAL [T21G], 1.78. On to AVPTDEARAFAEKNGLSFIENSAL [T21N], for which the protein stability index is 2.47. For AVPTDEARAFAEKNGLSFIEVSAL [T21V] the value was 2.12; for AVPTDEARAFAEKNGLSFIELSAL [T21L], 2.46; for AVPTDEARAFAEKNGLSFIETGAL [S22G], 2.91. Turning to AVPTDEARAFAEKNGLSFIETCAL [S22C], the protein stability index was found to be 2.54. With AVPTDEARAFAEKNGLSFIETYAL [S22Y], the protein stability index stood at 2.08. Consider AVPTDEARAFAEKNGLSFIETMAL [S22M], for which the protein stability index came out at 1.95. Consider AVPTDEARAFAEKNGLSFIETKAL [S22K], for which the protein stability index is 3.44. For AVPTDEARAFAEKNGLSFIETWAL [S22W], the protein stability index was 1.6. For AVPTDEARAFAEKNGLSFIETTAL [S22T] the value was 2.49. For the variant AVPTDEARAFAEKNGLSFIETHAL [S22H], the protein stability index came to 2.22. On to AVPTDEARAFAEKNGLSFIETLAL [S22L], for which the protein stability index was 2.5.

On to AVPTDEARAFAEKNGLSFIETPAL [S22P], for which the protein stability index is 3.73. Regarding AVPTDEARAFAEKNGLSFIETAAL [S22A], the protein stability index was 2.35. AVPTDEARAFAEKNGLSFIETQAL [S22Q]: the protein stability index was determined as 3.14.

As to AVPTDEARAFAEKNGLSFIETDAL [S22D], the protein stability index was 3.84.

Turning to AVPTDEARAFAEKNGLSFIETEAL [S22E], the protein stability index is 4.01. Under AVPTDEARAFAEKNGLSFIETVAL [S22V] stands 2.64; under AVPTDEARAFAEKNGLSFIETFAL [S22F], 2.27; under AVPTDEARAFAEKNGLSFIETNAL [S22N], 3.38. Consider AVPTDEARAFAEKNGLSFIETRAL [S22R], for which the protein stability index was found to be 2.25. On to AVPTDEARAFAEKNGLSFIETIAL [S22I], for which the protein stability index was 1.76.

Regarding AVPTDEARAFAEKNGLSFPETSAL [I19P], the protein stability index was 4.5.

On to AVPTDEARAFAEKNGLSFHETSAL [I19H], for which the protein stability index was determined as 2.46. As for AVPTDEARAFAEKNGLSFGETSAL [I19G], the protein stability index came to 4.5. As for AVPTDEARAFAEKNGLSFLETSAL [I19L], the protein stability index amounted to 3.71.

As for AVPTDEARAFAEKNGLSFAETSAL [I19A], the protein stability index came out at 4.39.

As for AVPTDEARAFAEKNGLSFDETSAL [I19D], the protein stability index worked out at 4.56. For AVPTDEARAFAEKNGLSFCETSAL [I19C] the value was 3.45; for AVPTDEARAFAEKNGLSFFETSAL [I19F], 3.4; for AVPTDEARAFAEKNGLSFNETSAL [I19N], 4.43. For AVPTDEARAFAEKNGLSFEETSAL [I19E] the value was 4.24; for AVPTDEARAFAEKNGLSFSETSAL [I19S], 4.41; for AVPTDEARAFAEKNGLSFWETSAL [I19W], 3.92. For AVPTDEARAFAEKNGLSFRETSAL [I19R] the value was 3.85; for AVPTDEARAFAEKNGLSFVETSAL [I19V], 3; for AVPTDEARAFAEKNGLSFTETSAL [I19T], 4.17. On to AVPTDEARAFAEKNGLSFMETSAL [I19M], for which the protein stability index turned out to be 3.91. For the variant AVPTDEARAFAEKNGLSFKETSAL [I19K], the protein stability index turned out to be 4.12. For AVPTDEARAFAEKNGLSFQETSAL [I19Q] the value was 3.6; for AVPTDEARAFAEKNGLSFYETSAL [I19Y], 3.81; for AVPTDEARAFAEKNGLSFICTSAL [E20C], 2.01. As for AVPTDEARAFAEKNGLSFIVTSAL [E20V], the protein stability index worked out at 1.86. Turning to AVPTDEARAFAEKNGLSFILTSAL [E20L], the protein stability index stood at 1.74. Consider AVPTDEARAFAEKNGLSFIFTSAL [E20F], for which the protein stability index stood at 1.79. Turning to AVPTDEARAFAEKNGLSFIPTSAL [E20P], the protein stability index stood at 3.12. Take AVPTDEARAFAEKNGLSFIHTSAL [E20H]: the protein stability index was 1.87. As to AVPTDEARAFAEKNGLSFIKTSAL [E20K], the protein stability index came out at 2.8. Under AVPTDEARAFAEKNGLSFITTSAL [E20T] stands 2.41; under AVPTDEARAFAEKNGLSFIYTSAL [E20Y], 2.35.

For AVPTDEARAFAEKNGLSFIMTSAL [E20M], the protein stability index was 1.81.

For AVPTDEARAFAEKNGLSFIITSAL [E20I], the protein stability index turned out to be 1.8. Take AVPTDEARAFAEKNGLSFISTSAL [E20S]: the protein stability index worked out at 3.01. Consider AVPTDEARAFAEKNGLSFIWTSAL [E20W], for which the protein stability index is 1.44. Consider AVPTDEARAFAEKNGLSFIDTSAL [E20D], for which the protein stability index stood at 2.08.

In the case of AVPTDEARAFAEKNGLSFIQTSAL [E20Q], the protein stability index is 2.34. Regarding AVPTDEARAFAEKNGLSFINTSAL [E20N], the protein stability index amounted to 2.24. For AVPTDEARAFAEKNGLSFIATSAL [E20A] the value was 2.27; for AVPTDEARAFAEKNGLSFIGTSAL [E20G], 2.02. On to AVPTDEARAFAEKNGLSFIRTSAL [E20R], for which the protein stability index turned out to be 2.5. In the case of AVPTDEARAFAEKNGLSFIETSSL [A23S], the protein stability index turned out to be 2.79. Turning to AVPTDEARAFAEKNGLSFIETSML [A23M], the protein stability index came to 1.81. As for AVPTDEARAFAEKNGLSFIETSKL [A23K], the protein stability index is 2.42.

Regarding AVPTDEARAFAEKNGLSFIETSVL [A23V], the protein stability index came to 2.12. For the variant AVPTDEARAFAEKNGLSFIETSCL [A23C], the protein stability index was determined as 2.08. As to AVPTDEARAFAEKNGLSFIETSRL [A23R], the protein stability index came out at 2.04. On to AVPTDEARAFAEKNGLSFIETSHL [A23H], for which the protein stability index turned out to be 2.04. As for AVPTDEARAFAEKNGLSFIETSIL [A23I], the protein stability index was 1.65. Turning to AVPTDEARAFAEKNGLSFIETSTL [A23T], the protein stability index is 2.08. For AVPTDEARAFAEKNGLSFIETSGL [A23G] the value was 3.49; for AVPTDEARAFAEKNGLSFIETSQL [A23Q], 2.52; for AVPTDEARAFAEKNGLSFIETSPL [A23P], 2.82. Regarding AVPTDEARAFAEKNGLSFIETSLL [A23L], the protein stability index is 1.9.

With AVPTDEARAFAEKNGLSFIETSDL [A23D], the protein stability index stood at 4.18. With AVPTDEARAFAEKNGLSFIETSNL [A23N], the protein stability index was found to be 2.87. Consider AVPTDEARAFAEKNGLSFIETSFL [A23F], for which the protein stability index was determined as 1.66. For AVPTDEARAFAEKNGLSFIETSEL [A23E] the value was 3.68.
